# According to IntAct's records for PubMed 16339850:
# B1: E3 ubiquitin-protein ligase COP1 (Arabidopsis thaliana (Mouse-ear cress)), P43254 (parent)
# chain: MEEISTDPVVPAVKPDPRTSSVGEGANRHENDDGGSGGSEIGAPDLDKDLLCPICMQIIKDAFLTACGHSFCYMCIITHLRNKSDCPCCSQHLTNNQLYPNFLLDKLLKKTSARHVSKTASPLDQFREALQRGCDVSIKEVDNLLTLLAERKRKMEQEEAERNMQILLDFLHCLRKQKVDELNEVQTDLQYIKEDINAVERHRIDLYRARDRYSVKLRMLGDDPSTRNAWPHEKNQIGFNSNSLSIRGGNFVGNYQNKKVEGKAQGSSHGLPKKDALSGSDSQSLNQSTVSMARKKRIHAQFNDLQECYLQKRRQLADQPNSKQENDKSVVRREGYSNGLADFQSVLTTFTRYSRLRVIAEIRHGDIFHSANIVSSIEFDRDDELFATAGVSRCIKVFDFSSVVNEPADMQCPIVEMSTRSKLSCLSWNKHEKNHIASSDYEGIVTVWDVTTRQSLMEYEEHEKRAWSVDFSRTEPSMLVSGSDDCKVKVWCTRQEASVINIDMKANICCVKYNPGSSNYIAVGSADHHIHYYDLRNISQPLHVFSGHKKAVSYVKFLSNNELASASTDSTLRLWDVKDNLPVRTFRGHTNEKNFVGLTVNSEYLACGSETNEVYVYHKEITRPVTSHRFGSPDMDDAEEEAGSYFISAVCWKSDSPTMLTANSQGTIKVLVLAA
# partner: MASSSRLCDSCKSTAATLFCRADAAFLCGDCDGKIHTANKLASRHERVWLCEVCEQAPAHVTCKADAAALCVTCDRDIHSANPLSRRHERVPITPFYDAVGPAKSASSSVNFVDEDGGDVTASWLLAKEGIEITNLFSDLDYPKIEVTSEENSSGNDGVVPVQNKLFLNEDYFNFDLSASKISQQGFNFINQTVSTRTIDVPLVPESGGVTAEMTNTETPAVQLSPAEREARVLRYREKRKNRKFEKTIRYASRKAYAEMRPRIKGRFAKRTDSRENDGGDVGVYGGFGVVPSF
# B2: Zinc finger protein CONSTANS-LIKE 3 (Arabidopsis thaliana (Mouse-ear cress)), Q9SK53 (parent)
# chain: B1 partner
# partner: B1 chain
# Variants of: B1
# Conditions: with col3_arath COL3, Q9SK53
row,Variant,effect of a mutation on the interaction
1,G524E,disrupting interaction strength

# Variants of: B2
# Conditions: with cop1_arath COP1, P43254
row,Variant,effect of a mutation on the interaction
1,MASSSRLCDSCKSTAATLFCRADAAFLCGDCDGKIHTANKLASRHERVWLCEVCEQAPAHVTCKADAAALCVTCDRDIHSANPLSRRHERVPITPFYDAVGPAKSASSSVNFVDEDGGDVTASWLLAKEGIEITNLFSDLDYPKIEVTSEENSSGNDGVVPVQNKLFLNEDYFNFDLSASKISQQGFNFINQTVSTRTIDVPLVPESGGVTAEMTNTETPAVQLSPAEREARVLRYREKRKNRKFEKTIRYASRKAYAEMRPRIKGRFAKRTDSRENDGGDVGVYGGFGVAASF [V291A;P292A],disrupting interaction
